Laboratory results reported in patent publication WO2011147762A2.

How the values were obtained:
[1] = target: ED-B fibronectin antigen protein (recombinant), bound to CNBr activated sepharose 4B (UniProt P02751); assay: ED-B sepharose column, % of total radioactivity bound; Study A; sodium thiosulfate 5 mg/mL; day 0
[2] = target: ED-B fibronectin antigen protein (recombinant), bound to CNBr activated sepharose 4B (UniProt P02751); assay: ED-B sepharose column, % of total radioactivity bound; Study A; maltose 50 mg/mL; day 7
[3] = target: ED-B fibronectin antigen protein (recombinant), bound to CNBr activated sepharose 4B (UniProt P02751); assay: ED-B sepharose column, % of total radioactivity bound; Study A; sodium thiosulfate 5 mg/mL; day 3
[4] = target: ED-B fibronectin antigen protein (recombinant), bound to CNBr activated sepharose 4B (UniProt P02751); assay: ED-B sepharose column, % of total radioactivity bound; Study A; inositol 5 mg/mL; day 5
[5] = target: ED-B fibronectin antigen protein (recombinant), bound to CNBr activated sepharose 4B (UniProt P02751); assay: ED-B sepharose column, % of total radioactivity bound; Study B3; human serum albumin 10 mg/mL; day 2
[6] = target: ED-B fibronectin antigen protein (recombinant), bound to CNBr activated sepharose 4B (UniProt P02751); assay: ED-B sepharose column, % of total radioactivity bound; Study A; methionine 5 mg/mL; day 0
[7] = target: ED-B fibronectin antigen protein (recombinant), bound to CNBr activated sepharose 4B (UniProt P02751); assay: ED-B sepharose column, % of total radioactivity bound; Study A; no-excipient control (saline); day 1
[8] = target: ED-B fibronectin antigen protein (recombinant), bound to CNBr activated sepharose 4B (UniProt P02751); assay: ED-B sepharose column, % of total radioactivity bound; Study B3; human serum albumin 10 mg/mL; day 7
[9] = target: ED-B fibronectin antigen protein (recombinant), bound to CNBr activated sepharose 4B (UniProt P02751); assay: ED-B sepharose column, % of total radioactivity bound; Study A; inositol 5 mg/mL; day 0
[10] = target: ED-B fibronectin antigen protein (recombinant), bound to CNBr activated sepharose 4B (UniProt P02751); assay: ED-B sepharose column, % of total radioactivity bound; Study A; maltose 25 mg/mL; day 0
[11] = target: ED-B fibronectin antigen protein (recombinant), bound to CNBr activated sepharose 4B (UniProt P02751); assay: ED-B sepharose column, % of total radioactivity bound; Study A; no-excipient control (saline); day 0
[12] = target: ED-B fibronectin antigen protein (recombinant), bound to CNBr activated sepharose 4B (UniProt P02751); assay: ED-B sepharose column, % of total radioactivity bound; Study A; sodium thiosulfate 50 mg/mL; day 7
[13] = target: ED-B fibronectin antigen protein (recombinant), bound to CNBr activated sepharose 4B (UniProt P02751); assay: ED-B sepharose column, % of total radioactivity bound; Study B3; inositol 10 mg/mL; day 1
[14] = target: ED-B fibronectin antigen protein (recombinant), bound to CNBr activated sepharose 4B (UniProt P02751); assay: ED-B sepharose column, % of total radioactivity bound; Study A; maltose 50 mg/mL; day 0
[15] = target: ED-B fibronectin antigen protein (recombinant), bound to CNBr activated sepharose 4B (UniProt P02751); assay: ED-B sepharose column, % of total radioactivity bound; Study A; trolox 5 mg/mL; day 1
[16] = target: ED-B fibronectin antigen protein (recombinant), bound to CNBr activated sepharose 4B (UniProt P02751); assay: ED-B sepharose column, % of total radioactivity bound; Study B3; thioglycerol 10 mg/mL; day 7
[17] = target: ED-B fibronectin antigen protein (recombinant), bound to CNBr activated sepharose 4B (UniProt P02751); assay: ED-B sepharose column, % of total radioactivity bound; Study A; methionine 5 mg/mL; day 3
[18] = target: ED-B fibronectin antigen protein (recombinant), bound to CNBr activated sepharose 4B (UniProt P02751); assay: ED-B sepharose column, % of total radioactivity bound; Study B3; ascorbic acid 25 mg/mL; day 5
[19] = target: ED-B fibronectin antigen protein (recombinant), bound to CNBr activated sepharose 4B (UniProt P02751); assay: ED-B sepharose column, % of total radioactivity bound; Study A; methionine 10 mg/mL; day 0
[20] = target: ED-B fibronectin antigen protein (recombinant), bound to CNBr activated sepharose 4B (UniProt P02751); assay: ED-B sepharose column, % of total radioactivity bound; Study B3; inositol 10 mg/mL; day 2
[21] = target: ED-B fibronectin antigen protein (recombinant), bound to CNBr activated sepharose 4B (UniProt P02751); assay: ED-B sepharose column, % of total radioactivity bound; Study A; maltose 25 mg/mL; day 7
[22] = target: ED-B fibronectin antigen protein (recombinant), bound to CNBr activated sepharose 4B (UniProt P02751); assay: ED-B sepharose column, % of total radioactivity bound; Study A; sodium thiosulfate 50 mg/mL; day 3
[23] = target: ED-B fibronectin antigen protein (recombinant), bound to CNBr activated sepharose 4B (UniProt P02751); assay: ED-B sepharose column, % of total radioactivity bound; Study B3; thioglycerol 10 mg/mL; day 3
[24] = target: ED-B fibronectin antigen protein (recombinant), bound to CNBr activated sepharose 4B (UniProt P02751); assay: ED-B sepharose column, % of total radioactivity bound; Study A; maltose 10 mg/mL; day 3
[25] = target: ED-B fibronectin antigen protein (recombinant), bound to CNBr activated sepharose 4B (UniProt P02751); assay: ED-B sepharose column, % of total radioactivity bound; Study A; inositol 50 mg/mL; day 7
[26] = target: ED-B fibronectin antigen protein (recombinant), bound to CNBr activated sepharose 4B (UniProt P02751); assay: ED-B sepharose column, % of total radioactivity bound; Study A; methionine 10 mg/mL; day 1
[27] = target: ED-B fibronectin antigen protein (recombinant), bound to CNBr activated sepharose 4B (UniProt P02751); assay: ED-B sepharose column, % of total radioactivity bound; Study B3; no-excipient control (PBS); day 0
[28] = target: ED-B fibronectin antigen protein (recombinant), bound to CNBr activated sepharose 4B (UniProt P02751); assay: ED-B sepharose column, % of total radioactivity bound; Study A; inositol 10 mg/mL; day 3

Chain of UniProt P02751 (P02751 1266-1356 limits assumed): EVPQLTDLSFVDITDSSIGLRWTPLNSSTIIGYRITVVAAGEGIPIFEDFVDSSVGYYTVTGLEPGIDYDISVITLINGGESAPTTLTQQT
Chain of 131I L19-SIP (radioiodinated L19 SIP homodimer) (chain): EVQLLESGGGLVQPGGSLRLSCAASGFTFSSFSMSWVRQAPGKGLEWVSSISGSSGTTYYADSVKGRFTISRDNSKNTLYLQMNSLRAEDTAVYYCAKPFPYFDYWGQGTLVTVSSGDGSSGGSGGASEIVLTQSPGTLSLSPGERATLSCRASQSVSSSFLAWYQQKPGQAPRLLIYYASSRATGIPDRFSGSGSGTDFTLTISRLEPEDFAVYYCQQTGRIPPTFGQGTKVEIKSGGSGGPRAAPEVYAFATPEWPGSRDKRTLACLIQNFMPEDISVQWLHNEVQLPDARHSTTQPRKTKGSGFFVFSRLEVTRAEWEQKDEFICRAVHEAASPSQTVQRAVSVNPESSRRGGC
Chain of 131I L19-SIP (radioiodinated L19 SIP homodimer) (chain): as above

- Immunoreactivity (%) [1]: 97.3%
- Immunoreactivity (%) [2]: 50.7%
- Immunoreactivity (%) [3]: 83.5%
- Immunoreactivity (%) [4]: 56.2%
- Immunoreactivity (IR) (%) [5]: 59.9%
- Immunoreactivity (%) [6]: 96.7%
- Immunoreactivity (%) [7]: 81.6%
- Immunoreactivity (IR) (%) [8]: 39.8%
- Immunoreactivity (%) [9]: 94.8%
- Immunoreactivity (%) [10]: 93.6%
- Immunoreactivity (%) [11]: 94.3%
- Immunoreactivity (%) [12]: 88.2%
- Immunoreactivity (IR) (%) [13]: 77.1%
- Immunoreactivity (%) [14]: 89.7%
- Immunoreactivity (%) [15]: 84.8%
- Immunoreactivity (IR) (%) [16]: 47.1%
- Immunoreactivity (%) [17]: 72.9%
- Immunoreactivity (IR) (%) [18]: 64.7%
- Immunoreactivity (%) [19]: 96.6%
- Immunoreactivity (IR) (%) [20]: 68.8%
- Immunoreactivity (%) [21]: 53.6%
- Immunoreactivity (%) [22]: 91.7%
- Immunoreactivity (IR) (%) [23]: 59.5%
- Immunoreactivity (%) [24]: 65.2%
- Immunoreactivity (%) [25]: 61.9%
- Immunoreactivity (%) [26]: 88.1%
- Immunoreactivity (IR) (%) [27]: 74.6%
- Immunoreactivity (%) [28]: 70.4%
Substance: 131I L19-SIP (radioiodinated L19 SIP homodimer)
